Data published in patent US20080193426A1, “MIGRATION OF HEMATOPOIETIC STEM CELLS AND PROGENITOR CELLS TO THE LIVER” (YEDA RESEARCH AND DEVELOPMENT CO., LTD., priority 2001, published 2008).

Molecular target: T1, CXCR4 (Homo sapiens, UniProt P61073)
T1 construct: homing of human CD34+ enriched MPB cells to the liver of NOD/SCID mice; endogenous in cells; host or cells: CD34+ enriched mobilized peripheral blood cells, thawed and incubated overnight with SLF, transplanted into non-irradiated NOD/SCID mice
T1 sequence (P61073 whole entry): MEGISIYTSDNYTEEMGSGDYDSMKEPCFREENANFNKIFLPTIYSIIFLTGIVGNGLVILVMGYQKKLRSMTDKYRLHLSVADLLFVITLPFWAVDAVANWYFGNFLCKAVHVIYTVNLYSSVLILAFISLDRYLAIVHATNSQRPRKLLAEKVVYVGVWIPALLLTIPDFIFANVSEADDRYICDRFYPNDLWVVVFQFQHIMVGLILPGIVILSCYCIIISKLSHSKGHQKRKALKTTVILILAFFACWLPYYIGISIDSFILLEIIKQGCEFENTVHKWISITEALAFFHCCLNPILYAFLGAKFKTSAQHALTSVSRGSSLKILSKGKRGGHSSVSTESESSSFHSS
Test: Homing of human CD34+ enriched MPB cells to the liver of non-irradiated NOD/SCID mice, SDF-1 injected into the liver
Assay type: in vivo
Details: for homing of human stem cells and progenitor cells to the liver (in words): SDF-1 injected into the liver
Method: The following experiment was carried out in order to test whether homing of human CD34+ enriched MPB cells to the liver of NOD/SCID mice requires high concentrations of human SDF-1 in the liver.
Frozen […] mobilized peripheral blood (MPB) CD34+ cells were thawed, and incubated at 37° C. over night with 50 ng/ml SLF for recovery. In contrast to the experiment described in example 1, this experiment was carried out with non irradiated mice (not pre-conditioned) and also in non-irradiated mice in which human SDF-1 has been injected directly into the liver immediately prior transplantation. Briefly, non-irradiated NOD/SCID mice were anaesthetized and 1 microgram SDF-1 (in 50 microliter PBS) were injected into the right lobe of the liver. Next, treated and control mice were transplanted intravenously with 8×10^5 CD34+ MPB enriched cells. In one group, CD34+ cells were incubated for 30 min. (4° C.) with 10 micrograms of neutralizing anti-human CXCR4 mAb (12G5), and co-transplanted without washing. Four hours later, the injected lobe was harvested, a single cell suspension was prepared and introduced to flow cytometry analysis, using human specific anti CD34-FITC and anti CD38-PE mAb. Injection of SDF-1 to the liver creates a positive gradient in the liver and a negative gradient in the blood. Since this gradient is maintained for about 4 hours only, therefore the mice were sacrificed and homing was tested rapidly, four hours after cell injection.

Substance: SDF-1: human SDF-1, CXC chemokine and ligand of CXCR4, injected directly into the liver
- Number of human cells in the liver per 1 × 10^6 total aquired cells (1 microgram SDF-1 into right liver lobe, 8×10^5 CD34+ MPB cells IV, 12G5 10 micrograms, four hours, flow cytometry): 38
- % (number of human cells in the liver, SDF-1 group = 100) (1 microgram SDF-1 into right liver lobe, four hours after cell injection): 100%
- homing of human stem cells and progenitor cells to the liver (in words) (four hours after cell injection): improves significantly
- homing of human stem cells and progenitor cells to the liver (in words) (four hours after cell injection, listed as human SDF-1): a considerable number of human stem cells and progenitor cells were observed
